Residue numbers refer to the chain shown, from its start. Names and notes keep the numbering of the source.
B1: SpXDH C97S mutant (enzyme, Schizosaccharomyces pombe, UniProt P36624 1-360, looked up)
chain: MAPAEKAFVLRKKMDTAIEDRPGQTLTDDHQVKVAIKATGICGSDVHYWKEGGIGDFILKKPMILGHESAGVVVEVGKGVSSLKPGDPVAVEPGCVSRLCDYCRSGRYNLCPHMEFAATPPYDGTLRTYYITTEDFCTKLPKQISVEEGALFEPMSVAVHAMTRGNLKCGSRVLVMGCGTVGLLMMAVAKAYGAIDIVAVDASPSRVEFAQKYVGAKPFTPIAAKENESLPDYAQRYKQAIIEKYGEFDFAVDATGVGICIHTAVLALKRGGTFVQAGNGKPVIDFPINHIINYEINVLGSFRYAHGCYKQSLFLVSNGLVDVKPLITHRFAFKDALKAYETVASGEEGVLKVIIGGPDA
notes: SPBC1773.05c protein of S. pombe (SpXDH), cloned into pQE-81L; source: E. coli DH5α, purified (Ni-NTA)
B2: SpXDH C100S mutant (enzyme, Schizosaccharomyces pombe, UniProt P36624 1-360, looked up)
chain: B1 chain with S97C, C100S
notes: as for B1
B3: SpXDH (Schizosaccharomyces pombe 972h-; C100D) (protein)
chain: B1 chain with S97C, C100D
B4: SpXDH (Schizosaccharomyces pombe 972h-; C111D) (protein)
chain: B1 chain with S97C, C111D
B5: SpXDH wild type (xylitol dehydrogenase, SPBC1773.05c protein from Schizosaccharomyces pombe) (enzyme, UniProt P36624 1-360, looked up)
chain: B1 chain with S97C
notes: cloned into pQE-81L; also called SpXDHWT; WT; source: E. coli DH5α, purified (Ni-NTA)
B6: SpXDH C103S mutant (enzyme, Schizosaccharomyces pombe, UniProt P36624 1-360, looked up)
chain: B1 chain with S97C, C103S
notes: as for B1
B7: SpXDH C111S mutant (enzyme, Schizosaccharomyces pombe, UniProt P36624 1-360, looked up)
chain: B1 chain with S97C, C111S
notes: as for B1
B8: SpXDH C103D mutant (enzyme, Schizosaccharomyces pombe, UniProt P36624 1-360, looked up)
chain: B1 chain with S97C, C103D
notes: as for B1
B9: SpXDH C97D mutant (enzyme, Schizosaccharomyces pombe, UniProt P36624 1-360, looked up)
chain: B1 chain with S97D
notes: as for B1
B10: ScXDH (Saccharomyces cerevisiae S288C) (protein)
chain: MTDLTTQEAIVLERPGKITLTNVSIPKISDPNEVIIQIKATGICGSDIHYYTHGRIANYVVESPMVLGHESSGIVALIGENVKTLKVGDRVALEPGIPDRFSPEMKEGRYNLDPNLKFAATPPFDGTLTKYYKTMKDFVYKLPDDVSFEEGALIEPLSVAIHANKLAKIKFGARCVVFGAGPIGLLAGKVASVFGAADVVFVDLLENKLETARQFGATHIVNSGDLPHGVTVDSVIKKAIGKKGADVVFECSGAEPCVRAGIEVCKAGGTIVQVGMGQEEIQFPISIIPTKELTFQGCFRYCQGDYSDSIELVSSRKLSLKPFITHRYSFKDAVEAFEETSHHPLNNIKTIIEGPE
B11: ScXDH (Saccharomyces cerevisiae S288C; D113C/D99C/M105C/S102C) (protein)
chain: B10 chain with D99C, S102C, M105C, D113C
B12: PsXDHC4 mutant (xylitol dehydrogenase from Pichia stipitis, S96C/S99C/Y102C) (enzyme)
chain: TANPSLVLNKIDDISFETYDAPEISEPTDVLVQVKKTGICGSDIHFYAHGRIGNFVLTKPMVLGHESAGTVVQVGKGVTSLKVGDNVAIEPGIPCRFCDECKSGHYNLCPHMAFAATPNSKEGEPNPPGTLCKYFKSPEDFLVKLPDHVSLELGALVEPLSVGVHASKLGSVAFGDYVAVFGAGPVGLLAAAVAKTFGAKGVIVVDIFDNKLKMAKDIGAATHTFNSKTGGSEELIKAFGGNVPNVVLECTGAEPCIKLGVDAIAPGGRFVQVGNAAGPVSFPITVFAMKELTLFGSFRYGFNDYKTAVGIFDTNYQNGRENAPIDFEQLITHRYKFKDAIEAYDLVRAGKGAVKCLIDGPE
notes: xylitol dehydrogenase (XDH) of Pichia stipitis (Scheffersomyces stipitis), encoded by the PICST_86924 gene, cloned into pQE-81L; the model holds Thr2-Pro362 (Ser121-Gly124 not built); source: E. coli DH5α, purified (Ni-NTA, Superdex 200)
B13: PsXDH (Scheffersomyces stipitis CBS 6054) (protein)
chain: MTANPSLVLNKIDDISFETYDAPEISEPTDVLVQVKKTGICGSDIHFYAHGRIGNFVLTKPMVLGHESAGTVVQVGKGVTSLKVGDNVAIEPGIPSRFSDEYKSGHYNLCPHMAFAATPNSKEGEPNPPGTLCKYFKSPEDFLVKLPDHVSLELGALVEPLSVGVHASKLGSVAFGDYVAVFGAGPVGLLAAAVAKTFGAKGVIVVDIFDNKLKMAKDIGAATHTFNSKTGGSEELIKAFGGNVPNVVLECTGAEPCIKLGVDAIAPGGRFVQVGNAAGPVSFPITVFAMKELTLFGSFRYGFNDYKTAVGIFDTNYQNGRENAPIDFEQLITHRYKFKDAIEAYDLVRAGKGAVKCLIDGPE
notes: full length, N-terminal His6 tag (pQE-81L), E. coli DH5alpha; homotetramer; 7Y9P is the apo C4 mutant
B14: PsXDH (Scheffersomyces stipitis CBS 6054; S96D/S99C/Y102C) (protein)
chain: B13 chain with S96D, S99C, Y102C
notes: as for B13
B15: PsXDH (Scheffersomyces stipitis CBS 6054; S96C/S99C/Y102C) (protein)
chain: B13 chain with S96C, S99C, Y102C
notes: as for B13

Tests used:
[1] = substrate: OC[C@@H](O)[C@H](O)[C@@H](O)CO; experiment: purified protein; details: 1.5 mM NAD+, 50 mM Tris-HCl pH 8.0, 30 °C
[2] = target: the molecule itself; experiment: SEC; gel filtration of the sample purified by Ni-NTA (HiLoad 16/600 Superdex 200 pg, 20 mM Tris-HCl pH 8.0, 150 mM NaCl)
[3] = target: the molecule itself; experiment: SEC; analytical size-exclusion chromatography of PsXDHC4 in solution
[4] = substrate: OC[C@@H](O)[C@H](O)[C@@H](O)CO; experiment: purified protein; assay type: biochemical, Scheffersomyces stipitis; details: […] NAD+, 50 mM Tris-HCl pH 8.0, 30 °C

Protein | Km ([1]; 1-10 mM xylitol) | kcat ([1]; 1-10 mM xylitol) | kcat/Km ([1]; 1-10 mM xylitol) | stoichiometry N [2] | also measured
B1 | 12.3 ± 2.3 mM | 6.03 s⁻¹ | 493 M⁻¹ s⁻¹ | 4 | 
B2 | 16.2 ± 5.0 mM | 0.202 s⁻¹ | 12.4 M⁻¹ s⁻¹ | 4 | 
B3 | 8.26 ± 0.89 mM | 2.17 s⁻¹ | 263 M⁻¹ s⁻¹ |  | 
B4 | 9.76 ± 0.15 mM | 3.6 s⁻¹ | 368 M⁻¹ s⁻¹ |  | 
B5 | 6.10 ± 0.34 mM | 6.95 s⁻¹ | 1140 M⁻¹ s⁻¹ | 4 | 
B6 |  |  |  | 4 | Km ([1]; xylitol range not marked): 9.01 ± 0.74 mM; kcat ([1]; xylitol range not marked): 2.08 s⁻¹; kcat/Km ([1]; xylitol range not marked): 233 M⁻¹ s⁻¹
B7 |  |  |  | 4 | 
B8 | 10.5 ± 0.7 mM | 7.82 s⁻¹ | 743 M⁻¹ s⁻¹ | 4 | 
B9 | 10.4 ± 0.1 mM | 6.78 s⁻¹ | 650 M⁻¹ s⁻¹ | 4 | 
B10 |  |  |  |  | Km ([1]; 0.1-1 mM xylitol): 1.82 ± 0.42 mM; kcat ([1]; 0.1-1 mM xylitol): 0.0182 s⁻¹; kcat/Km ([1]; 0.1-1 mM xylitol): 10.1 M⁻¹ s⁻¹
B11 |  |  |  |  | Km ([1]; 0.1-1 mM xylitol): 5.44 ± 0.78 mM; kcat ([1]; 0.1-1 mM xylitol): 0.402 s⁻¹; kcat/Km ([1]; 0.1-1 mM xylitol): 74 M⁻¹ s⁻¹
B12 |  |  |  |  | stoichiometry N [3]: 4
B13 |  |  |  |  | Km ([4]; 0.1-1 mM xylitol): 2.05 ± 0.20 mM; kcat ([4]; 0.1-1 mM xylitol): 0.63 ± 0.0583 s⁻¹; kcat/Km ([4]; 0.1-1 mM xylitol): 307 ± 3.33 M⁻¹ s⁻¹
B14 |  |  |  |  | Km ([4]; 1-10 mM xylitol): 11.0 ± 1.2 mM; kcat ([4]; 1-10 mM xylitol): 9.17 ± 0.633 s⁻¹; kcat/Km ([4]; 1-10 mM xylitol): 837 ± 28.3 M⁻¹ s⁻¹
B15 |  |  |  |  | Km ([4]; 0.1-1 mM xylitol): 4.94 ± 1.62 mM; kcat ([4]; 0.1-1 mM xylitol): 6.4 ± 1.85 s⁻¹; kcat/Km ([4]; 0.1-1 mM xylitol): 1320 ± 66.7 M⁻¹ s⁻¹

Source: publication PMC9895041, “Molecular evolutionary insight of structural zinc atom in yeast xylitol dehydrogenases and its application in bioethanol production by lignocellulosic biomass” (Scientific Reports, 2023)
